Measurements as given in patent publication US20220220200A1 (published 2022).

Assays:
[1] = target: T1, CD19 antigen (analyte of the Octet affinity assay) (UniProt P15391 20-291); assay: BLI
T1 chain: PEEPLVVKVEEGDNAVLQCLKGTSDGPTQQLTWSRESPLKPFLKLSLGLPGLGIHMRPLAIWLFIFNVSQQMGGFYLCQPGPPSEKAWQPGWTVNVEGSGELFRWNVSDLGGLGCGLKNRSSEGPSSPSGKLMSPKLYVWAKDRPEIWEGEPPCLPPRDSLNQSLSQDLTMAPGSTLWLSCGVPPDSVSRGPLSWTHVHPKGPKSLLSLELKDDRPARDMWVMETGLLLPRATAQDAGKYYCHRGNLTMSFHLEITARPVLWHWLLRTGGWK

FMC63 = assay: BLI

B1: #62 anti-CD19 scFv-rFc (Fc fusion)
scFv: QSVVTQPPSVSGAPGQRVTISCTGSSSNIGAGYDVHWYQQLPGTAPKLLIYENTNRPSGVPDRFSGSKSGTSASLAITGLQAEDEADYYCQSYDSSLSGWRVFGGGTKLTVLGSRGGGGSGGGGSGGGGSLEMAEVQLVQSGAEVKKPGESLKISCKGSGYSFTNSWIGWVRQMPGKGLEWMGLIYPDDSDTRYSPSFQGQVTISADSAINTAYLQWSSLKASDTAMYYCARQSTYIYGGYYDTWGQGTLVTVSS
**Q.** B1 was tested. Which Kd [1] did it give?
**A.** The Kd was 51.1 nM.

B2: #78 anti-CD19 scFv-rFc (Fc fusion)
scFv: QAVLTQPPSVSEAPRQRVTISCSGSSSNIGNNAVSWYQQLPGKAPKLLIYYDDLLPSGVSDRFSGSKSGTSASLAISGLQSEDEADYYCAAWDDSLNGWVFGGGTKVTVLGSRGGGGSGGGGSGGGGSLEEVQLVQSGAEVKKPGESLKISCKGSGYSFTSYWIGWVRQMPGKGLEWMGIIYPGDSDTRYSPSFQGQVTISADKSISTAYLQWSSLKASDTAMYYCARLSYSWSSWYWDFWGQGTLVTVSS
**Q.** With B2 as the binder, how does the Kd [1] read?
**A.** Its Kd is 21.9 nM.

B3: CD19 antigen (receptor)
chain: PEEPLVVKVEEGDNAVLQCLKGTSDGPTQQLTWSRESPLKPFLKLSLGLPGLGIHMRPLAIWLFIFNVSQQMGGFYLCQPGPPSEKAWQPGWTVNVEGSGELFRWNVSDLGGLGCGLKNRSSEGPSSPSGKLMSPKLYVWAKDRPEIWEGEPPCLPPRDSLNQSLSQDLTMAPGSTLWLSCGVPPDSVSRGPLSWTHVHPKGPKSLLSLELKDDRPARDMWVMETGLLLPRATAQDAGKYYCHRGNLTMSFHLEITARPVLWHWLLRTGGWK
**Q.** How did the Kd (FMC63) turn out when B3 was run?
**A.** Its Kd is 10.7 nM.
